Positions count from the first letter of the chain named. One block for each binder: values may come before it.
What was measured:
[1] = target: T1, EpCAM on CHO (dhfr-) cells transfected with EpCAM cDNA (UniProt P16422 24-314, limits assumed); experiment: FACS on CHO cells transfected with EpCAM, CD46 or CD38
T1 construct: whole, on cells; also called EP-CAM homotypic adhesion molecule; EpCAM-transfected cells
T1 sequence (looked up): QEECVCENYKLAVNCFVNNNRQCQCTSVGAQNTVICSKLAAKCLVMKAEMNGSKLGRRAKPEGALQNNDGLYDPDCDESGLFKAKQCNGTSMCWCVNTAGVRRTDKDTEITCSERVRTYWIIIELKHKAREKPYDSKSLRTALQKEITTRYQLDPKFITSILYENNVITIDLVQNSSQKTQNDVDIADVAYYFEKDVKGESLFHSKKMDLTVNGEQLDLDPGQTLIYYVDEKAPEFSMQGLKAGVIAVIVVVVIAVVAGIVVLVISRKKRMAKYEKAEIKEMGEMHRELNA

[2] = target: T2, CD38 on CHO (dhfr-) cells transfected with CD38 cDNA (UniProt P28907 1-300, limits assumed); experiment: as above
T2 construct: whole, on cells; also called control antigen CD38; negative control (CD38)

[3] = target: T3, Affinity-purified human CD46 from LS174T cells (human, UniProt P15529 35-392, limits assumed); experiment: SPR (BIACORE 3000, 37° C.), purified CD46 coupled to CM5 chip, IgG in solution
T3 construct: Coupled (640 RU) to CM5 chips for the BIACORE work; also called purified CD46; membrane cofactor protein CD46
T3 sequence (looked up): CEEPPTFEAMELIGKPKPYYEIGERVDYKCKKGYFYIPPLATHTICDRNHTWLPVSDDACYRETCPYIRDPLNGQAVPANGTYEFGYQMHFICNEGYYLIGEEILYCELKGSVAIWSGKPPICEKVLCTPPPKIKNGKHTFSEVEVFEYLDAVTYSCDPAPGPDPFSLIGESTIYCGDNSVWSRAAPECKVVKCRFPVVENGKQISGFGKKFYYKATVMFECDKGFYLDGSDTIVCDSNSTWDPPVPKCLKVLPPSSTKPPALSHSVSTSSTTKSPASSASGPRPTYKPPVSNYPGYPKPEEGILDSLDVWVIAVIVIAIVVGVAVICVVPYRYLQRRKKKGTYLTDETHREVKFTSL

[4] = target: T4, CD46 on cells (human colon carcinoma LS174T cells; CHO (dhfr-) cells transfected with CD46 cDNA) (human, UniProt P15529 35-392); experiment: FACS on CHO cells transfected with EpCAM, CD46 or CD38
T4 construct: whole, on cells; also called CD46 transfectants; cofactor protein CD46
T4 sequence (looked up): T3 sequence (looked up)

binding result [1]: no binding (tested: 20 µg IgG1/ml) | binding result [2]: no binding (tested: 20 µg IgG1/ml) | Kd [3]: 22 nM
B1: 02-237 IgG (antibody, V domains shown)
VH: QVQLVQSGAEVKKPGASVKVSCKASGYTFTSYGISWVRQAPGQGLEWMGWISAYNGNTNYAQKLQGRVTMTTDTSTSTAYMELRSLRSDDTAVYYCARGFPRTSFDSWGQGTLVTVSS
VL: not shown
modifications: amino acid residue 1 is a pyroglutamic acid (remark to Table III)
notes: Tested as human IgG1 (constant domains from pCRU-K01); The N-terminus of its light chain differs slightly from that of UBS54/K53 because of the cloning strategy

binding result [1]: no binding (tested: 20 µg IgG1/ml) | binding result [2]: no binding (tested: 20 µg IgG1/ml) | Kd [3]: 910 nM
B2: K53 IgG (antibody, V domains shown)
VH: B1 VH with F100M, P101M, T103G, S104V, S107Y, S118T
VL: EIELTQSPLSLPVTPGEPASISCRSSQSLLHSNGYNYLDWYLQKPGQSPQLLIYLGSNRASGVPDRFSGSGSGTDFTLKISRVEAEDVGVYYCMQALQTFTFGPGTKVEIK
modifications: amino acid residue 1 is a pyroglutamic acid (remark to Table III)
notes: also called clone K53; anti-CD46 clone K53

binding result [4]: no binding (tested: 20 µg IgG1/ml) | binding result [2]: no binding (tested: 20 µg IgG1/ml)
B3: UBS54 IgG (antibody, V domains shown)
VH: QVQLVQSGAEVKKPGSSVRVSCKASGGTFSSYAISWVRQAPGQGLEWMGGIIPIFGTANYAQKFQGRVTITADESTSTAYMELSSLRSEDTAVYYCARDPFLHYWGQGTLVTVST
VL: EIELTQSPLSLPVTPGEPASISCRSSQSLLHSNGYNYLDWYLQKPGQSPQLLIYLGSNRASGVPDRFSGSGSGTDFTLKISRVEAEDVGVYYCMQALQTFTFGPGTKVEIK
modifications: amino acid residue 1 is a pyroglutamic acid (remark to Table III)
notes: Tested as full human IgG1 with kappa light chain; also called anti-EpCAM clone UBS54; encoded by pUBS3000Neo

From patent publication USRE47770 (dated 2019)
